Assays:
3xFlag-PAK6 S531N = target: T1, 3xFlag-PAK6 S531N (UniProt Q9NQU5 1-681, S531N, autophosphorylated; phospho-Ser560 monitored by western blot); test: far-Western, overlay or dot blot; immunopurified Flag-tagged PAK6 or LRRK2 separated by SDS-PAGE and blotted onto nitrocellulose; incubated with purified His-14-3-3s at 1 μg/ml in 5% BSA in TBS-T overnight at 4°C; anti-His detection; details: both partners purified
T1 construct: PAK6, constitutively active variant; construct as described in Civiero et al., 2015; also called active variant S531N; source: HEK293T, transfected; in lysate (immunoprecipitation) and immunopurified (overlay)

3xFlag-PAK6 wild-type [1] = target: T2, 3xFlag-PAK6 wild-type (UniProt Q9NQU5 1-681, autophosphorylated; phospho-Ser560 monitored by western blot); test: pull-down; Flag-purified PAK6 bound to anti-Flag resin incubated for 2 h with purified His-14-3-3 isoforms (1 μM); bound 14-3-3s revealed with anti-His antibody; details: both partners purified
T2 construct: construct as described in Civiero et al., 2015; source: HEK293T, transfected; in lysate (immunoprecipitation) and immunopurified on anti-Flag resin (pull-down, overlay)

3xFlag-PAK6 wild-type [2] = target: T2, 3xFlag-PAK6 wild-type; test: far-Western, overlay or dot blot; immunopurified Flag-tagged PAK6 or LRRK2 separated by SDS-PAGE and blotted onto nitrocellulose; incubated with purified His-14-3-3s at 1 μg/ml in 5% BSA in TBS-T overnight at 4°C; anti-His detection; details: both partners purified
[3] = target: the molecule itself; test: native gel or EMSA; blue native gel (4-16%) of purified His-14-3-3γ wild-type, S59D and T145D; 5 μg of protein loaded; Coomassie staining

T2 sequence (Q9NQU5 whole entry, canonical isoform): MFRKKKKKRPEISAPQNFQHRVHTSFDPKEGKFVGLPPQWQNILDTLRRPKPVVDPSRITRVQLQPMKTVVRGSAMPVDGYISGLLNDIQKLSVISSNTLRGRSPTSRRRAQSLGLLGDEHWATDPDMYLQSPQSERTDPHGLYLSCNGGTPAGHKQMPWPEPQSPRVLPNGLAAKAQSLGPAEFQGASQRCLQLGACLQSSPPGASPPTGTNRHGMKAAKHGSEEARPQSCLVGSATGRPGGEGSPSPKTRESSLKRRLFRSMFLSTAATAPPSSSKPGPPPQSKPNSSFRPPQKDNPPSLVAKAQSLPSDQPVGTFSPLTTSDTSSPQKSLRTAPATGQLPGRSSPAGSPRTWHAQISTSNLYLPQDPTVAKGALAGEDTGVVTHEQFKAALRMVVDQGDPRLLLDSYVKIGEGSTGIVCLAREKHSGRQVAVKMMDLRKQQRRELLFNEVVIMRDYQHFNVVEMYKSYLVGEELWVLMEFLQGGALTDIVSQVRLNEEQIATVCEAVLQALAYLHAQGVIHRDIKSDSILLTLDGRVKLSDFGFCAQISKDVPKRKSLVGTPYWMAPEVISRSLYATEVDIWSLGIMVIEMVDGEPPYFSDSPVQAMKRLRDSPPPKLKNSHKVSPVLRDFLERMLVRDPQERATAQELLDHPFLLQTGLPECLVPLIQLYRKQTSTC
T1 sequence (Q9NQU5 whole entry S531N): as the sequence (Q9NQU5 whole entry, canonical isoform) above, with S531N counted along it

B1: 6xHis-14-3-3γ wild-type (natural protein, human, UniProt P61981 1-247, looked up)
chain: MVDREQLVQKARLAEQAERYDDMAAAMKNVTELNEPLSNEERNLLSVAYKNVVGARRSSWRVISSIEQKTSADGNEKKIEMVRAYREKIEKELEAVCQDVLSLLDNYLIKNCSETQYESKVFYLKMKGDYYRYLAEVATGEKRATVVESSEKAYSEAHEISKEHMQPTHPIRLGLALNYSVFYYEIQNAPEQACHLAKTAFDDAIAELDTLNEDSYKDSTLIMQLLRDNLTLWTSDQQDDDGGEGNN
notes: 14-3-3 protein gamma, cloned in pET28a(+) by PCR from a mammalian expression plasmid (Prof. Dario Alessi); runs around the size of the dimer on blue native gels; also called recombinant 14-3-3γ; 14-3-3 gamma; source: E. coli BL21(DE3), purified (IMAC, ProBond resin; PD10 desalting); not shown: 6xHis, N-terminal, kept
fold affinity against PAK6 wild-type (3xFlag-PAK6 S531N): 2 fold
binding result (3xFlag-PAK6 wild-type [1]): binds

B2: 6xHis-14-3-3 zeta (natural protein, human, UniProt P63104 1-245, looked up)
chain: MDKNELVQKAKLAEQAERYDDMAACMKSVTEQGAELSNEERNLLSVAYKNVVGARRSSWRVVSSIEQKTEGAEKKQQMAREYREKIETELRDICNDVLSLLEKFLIPNASQAESKVFYLKMKGDYYRYLAEVAAGDDKKGIVDQSQQAYQEAFEISKKEMQPTHPIRLGLALNFSVFYYEILNSPEKACSLAKTAFDEAIAELDTLSEESYKDSTLIMQLLRDNLTLWTSDTQGDEAEAGEGGEN
notes: 14-3-3 protein zeta, cloned in pET28a(+) by PCR from a mammalian expression plasmid (Prof. Dario Alessi); also called His-14-3-3ζ; source: E. coli BL21(DE3), purified (IMAC, ProBond resin; PD10 desalting); not shown: 6xHis, N-terminal, kept
binding result (3xFlag-PAK6 wild-type [2]): binds

B3: 6xHis-14-3-3 theta (natural protein, human, UniProt P27348 1-245, looked up)
chain: MEKTELIQKAKLAEQAERYDDMATCMKAVTEQGAELSNEERNLLSVAYKNVVGGRRSAWRVISSIEQKTDTSDKKLQLIKDYREKVESELRSICTTVLELLDKYLIANATNPESKVFYLKMKGDYFRYLAEVACGDDRKQTIDNSQGAYQEAFDISKKEMQPTHPIRLGLALNFSVFYYEILNNPELACTLAKTAFDEAIAELDTLNEDSYKDSTLIMQLLRDNLTLWTSDSAGEECDAAEGAEN
notes: 14-3-3 protein theta, cloned in pET28a(+) by PCR from a mammalian expression plasmid (Prof. Dario Alessi); also called His-14-3-3θ; source: E. coli BL21(DE3), purified (IMAC, ProBond resin; PD10 desalting); not shown: 6xHis, N-terminal, kept
binding result (3xFlag-PAK6 wild-type [2]): binds

B4: His-14-3-3γ T145D (natural protein, human, UniProt P61981 1-247, looked up)
chain: MVDREQLVQKARLAEQAERYDDMAAAMKNVTELNEPLSNEERNLLSVAYKNVVGARRSSWRVISSIEQKTSADGNEKKIEMVRAYREKIEKELEAVCQDVLSLLDNYLIKNCSETQYESKVFYLKMKGDYYRYLAEVATGEKRADVVESSEKAYSEAHEISKEHMQPTHPIRLGLALNYSVFYYEIQNAPEQACHLAKTAFDDAIAELDTLNEDSYKDSTLIMQLLRDNLTLWTSDQQDDDGGEGNN
notes: 14-3-3 protein gamma, phosphomimetic mutant; also called S145D (as once printed); source: E. coli BL21(DE3), purified (IMAC); not shown: 6xHis, N-terminal, kept
binding result [3]: binds
